Experiments:
Test in all cases: bead flow cytometry, AUC minus CD4
[1] = molecular target: T1, HCoV-229E spike protein (Sino Biological 40605-V08B) (HCoV-229E, UniProt P15423 16-1115)
T1 sequence: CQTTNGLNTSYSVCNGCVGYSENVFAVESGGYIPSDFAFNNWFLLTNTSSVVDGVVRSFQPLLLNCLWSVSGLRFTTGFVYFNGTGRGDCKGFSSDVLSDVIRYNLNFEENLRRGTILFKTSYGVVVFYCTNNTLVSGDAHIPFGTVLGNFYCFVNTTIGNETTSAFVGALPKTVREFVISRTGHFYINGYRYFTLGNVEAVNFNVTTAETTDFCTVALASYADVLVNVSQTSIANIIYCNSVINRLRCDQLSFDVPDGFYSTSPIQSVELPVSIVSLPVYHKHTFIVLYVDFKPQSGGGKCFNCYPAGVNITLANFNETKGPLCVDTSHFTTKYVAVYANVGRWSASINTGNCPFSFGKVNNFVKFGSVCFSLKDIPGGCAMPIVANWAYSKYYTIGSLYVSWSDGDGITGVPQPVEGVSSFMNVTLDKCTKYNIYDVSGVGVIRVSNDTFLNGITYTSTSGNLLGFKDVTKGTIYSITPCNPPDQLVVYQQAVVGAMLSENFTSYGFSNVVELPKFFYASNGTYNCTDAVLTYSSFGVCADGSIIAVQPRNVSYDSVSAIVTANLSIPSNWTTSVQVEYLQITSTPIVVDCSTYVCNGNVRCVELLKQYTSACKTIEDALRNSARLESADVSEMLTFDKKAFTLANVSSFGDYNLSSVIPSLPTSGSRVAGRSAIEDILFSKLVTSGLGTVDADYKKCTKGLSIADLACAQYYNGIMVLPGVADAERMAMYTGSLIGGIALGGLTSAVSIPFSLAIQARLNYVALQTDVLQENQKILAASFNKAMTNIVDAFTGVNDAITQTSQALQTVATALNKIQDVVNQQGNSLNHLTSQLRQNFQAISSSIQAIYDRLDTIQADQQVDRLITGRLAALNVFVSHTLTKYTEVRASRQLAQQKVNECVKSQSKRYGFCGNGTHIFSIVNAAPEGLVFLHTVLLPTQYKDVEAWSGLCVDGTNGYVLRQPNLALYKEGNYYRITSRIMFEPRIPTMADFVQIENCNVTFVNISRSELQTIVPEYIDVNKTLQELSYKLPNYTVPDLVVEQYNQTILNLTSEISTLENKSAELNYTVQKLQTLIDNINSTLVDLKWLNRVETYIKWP

[2] = molecular target: T2, HCoV-NL63 spike protein (Sino Biological 40604-V08B) (HCoV-NL63, UniProt Q6Q1S2 19-1296)
T2 sequence: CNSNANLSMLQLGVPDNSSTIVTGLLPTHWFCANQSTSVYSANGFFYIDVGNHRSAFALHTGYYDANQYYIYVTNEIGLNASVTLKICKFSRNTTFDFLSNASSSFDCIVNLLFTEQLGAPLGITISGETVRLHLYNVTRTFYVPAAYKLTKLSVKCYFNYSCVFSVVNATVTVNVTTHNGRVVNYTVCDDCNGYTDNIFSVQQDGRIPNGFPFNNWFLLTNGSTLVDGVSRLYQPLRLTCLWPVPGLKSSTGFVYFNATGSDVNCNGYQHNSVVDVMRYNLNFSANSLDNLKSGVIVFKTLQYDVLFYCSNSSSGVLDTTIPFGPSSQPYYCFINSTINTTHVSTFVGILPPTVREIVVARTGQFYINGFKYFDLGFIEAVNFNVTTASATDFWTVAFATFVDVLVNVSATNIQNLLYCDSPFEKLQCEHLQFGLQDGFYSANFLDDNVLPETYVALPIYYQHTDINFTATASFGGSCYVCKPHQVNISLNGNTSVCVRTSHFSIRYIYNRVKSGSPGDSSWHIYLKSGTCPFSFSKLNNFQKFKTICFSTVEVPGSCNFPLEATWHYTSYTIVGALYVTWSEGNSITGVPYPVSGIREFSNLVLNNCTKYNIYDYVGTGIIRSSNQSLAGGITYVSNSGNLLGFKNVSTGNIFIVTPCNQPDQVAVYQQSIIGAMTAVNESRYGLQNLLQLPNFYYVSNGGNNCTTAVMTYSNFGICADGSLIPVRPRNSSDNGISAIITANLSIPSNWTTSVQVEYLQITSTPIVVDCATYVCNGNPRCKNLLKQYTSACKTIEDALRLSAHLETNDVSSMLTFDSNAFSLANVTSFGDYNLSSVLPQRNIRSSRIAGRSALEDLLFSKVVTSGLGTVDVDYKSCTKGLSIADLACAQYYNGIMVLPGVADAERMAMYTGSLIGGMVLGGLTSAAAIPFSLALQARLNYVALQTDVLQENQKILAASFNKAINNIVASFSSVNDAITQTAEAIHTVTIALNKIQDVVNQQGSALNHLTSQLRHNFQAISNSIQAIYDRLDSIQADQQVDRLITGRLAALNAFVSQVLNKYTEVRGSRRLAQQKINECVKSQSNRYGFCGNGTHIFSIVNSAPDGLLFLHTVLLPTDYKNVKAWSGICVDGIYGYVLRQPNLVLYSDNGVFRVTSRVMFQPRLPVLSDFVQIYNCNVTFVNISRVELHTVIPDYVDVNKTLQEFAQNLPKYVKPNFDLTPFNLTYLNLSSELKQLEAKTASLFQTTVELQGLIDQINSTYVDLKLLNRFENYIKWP

[3] = molecular target: SARS-CoV-2 spike receptor binding domain (RBD), recombinant (SARS-CoV-2, UniProt P0DTC2 319-541)
[4] = molecular target: SARS-CoV-2 spike N-terminal domain (NTD), recombinant (SARS-CoV-2, UniProt P0DTC2 14-305)

Measured: binding result

B1: COV77-09 (antibody, V domains shown)
VH: EVQLVESGGGLVQPGRSLTLSCSGSGFTFGDYSMSWVRQAPGKGLEWLGFIRSQTYGGTTQYAASVQGRFTILRDDSKSIAYLQMNSLKTEDTAVYYCTRNYGVGDYWGQGTLVTVSS
VL: DIVMTQSPASLAVSLGERATIHCRSSLSVLNSSNNKNYLAWYQQKAGQPPKLLMYWASTRESGVPERFSGSGSGTDFTLTISSLEAGDVAVYYCQQYYDKLSLTFGGGTKVEIK
no binding (tested: 200 µg/mL): all assays above

B2: COV49-54 (antibody, V domains shown)
VH: EVQLVESGGGLVQPGGSLRLSCAASGFIVSSNYMSWVRQAPGKGLEWVSMIYSGGSTVYADSVKGRFTISRDISKNTLYLQMNSLRAEDTAVYYCALETFDYWGQGTLVTVSS
VL: DIQMTQSPSSLSASVGDRVTITCRASQGITNHLAWYQQKPGKVPKLLIYAASTLQSGVPSRFSGSGYGTDFTLTISSLQPEDVASYYCQKYDSAPRTFGQGTKVEIK
no binding (tested: 200 µg/mL): all assays above

B3: COV44-37 (antibody, V domains shown)
VH: QVQLVQSGAEVKKPGASVMLSCRASGYTFINDYMHWVRQAPGEGFEWMGIINPTGDGTKFAQKFQGRVTMTRDSSTTTVHMELRSLTSGDTAVYFCATGGRQSAFDIWGQGTVVIVSS
VL: DIVMTQSPLSLPVTPGESASISCRSSQSLLQNNGYNYLDWYLQKPGQSPQLLIYLGSYRASGVPDRFSGSGSGTDFTLKISRVEAEDVGVYYCVQAQQAPPLYTFGQGTKLQIK
no binding (tested: 200 µg/mL): all assays above

B4: COV44-74 (antibody, V domains shown)
VH: QVQLVQSGAEVKKPGASVKVSCKASGYTFSSYYMNWVRQAPGQGLEWVGLISPSAGYTAYAQMFQGRVTMTRDTSTSTVYMELSSLRSEDTAVYYCARVAVAGPNDYWGQGTLVTVSS
VL: EIVLTQSPGTLSLSPGERATLSCRASQSISSSYLAWYQQKPGQAPRLVILAASTRATGIPDRFSGSGSGTDFTLTISRLEPEDFALYYCQHYRSSPPLWTFGQGTKVEIR
no binding (tested: 200 µg/mL): all assays above

B5: COV23-01 (antibody, V domains shown)
VH: QVTLKESGPVLVKPTETLTLTCTVSGFSLSNTKMGVSWIRQPPGKALEWLAHIFSNDRKSYTTSLKSRLTISEDTSKSQIVLTMTNMDPVDTATYYCARIGAGGTYNFYYYMDVWGKGTTVTVSS
VL: EIVLTQSPATLSLSPGERATLSCRASQSVSSYLAWYQQKPGQAPRLLIYDASNRATGIPARFSGSGSGTDFTLTISSLEPEDFAVYYCQQRSLYYTFGQGTKLEIK
no binding (tested: 200 µg/mL): all assays above

B6: COV57-38 (antibody, V domains shown)
VH: QVQLVESGGGVVQPGRSLRLSCEASGFNFNNYGMHWVRQAPGKGLEWVAVISYEGSKKYYEDSVRGRFTISRDFSKNTLYLQMNSLRAEDTAVYYCAKANEIFWLGQFKNDALDFWGQGTMVTVSS
VL: QSVLTQPPSASGTPGQRVAVSCSGSSSNIGTNFVNWYQHLPRTAPKLLIYRDNQRPSGVPDRFSGSKSGTSASLAISGLQSEDEADYYCAVWDDSLNGQVFGGGTKVTVL
no binding (tested: 200 µg/mL): all assays above

B7: COV57-34 (antibody, V domains shown)
VH: QVQLVQSGTEVKKPGSSVKVSCRASGGTLSSYSVSWVRQAPGQGLEWMGRIIPILDKKTYAQKYQGRVTIIADTSTSTVYMELSSLKSDDSAVYYCTTFDYDTSGQRDQHDYWGQGTPVTVSS
VL: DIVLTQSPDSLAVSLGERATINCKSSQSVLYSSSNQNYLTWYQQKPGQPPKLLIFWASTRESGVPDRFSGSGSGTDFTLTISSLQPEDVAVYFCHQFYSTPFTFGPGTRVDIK
no binding (tested: 200 µg/mL): all assays above

B8: COV57-13 (antibody, V domains shown)
VH: QVQLVQSGTEVKKPGSSVKVSCRASGGTLSSYSVSWVRQAPGQGLEWMGRIIPILDKKTYAQKYQGRVTIIADTSTSTVYMELSSLKSEDSAVYYCTTFDYDTSGQRDQHDYWGQGTLVTVSS
VL: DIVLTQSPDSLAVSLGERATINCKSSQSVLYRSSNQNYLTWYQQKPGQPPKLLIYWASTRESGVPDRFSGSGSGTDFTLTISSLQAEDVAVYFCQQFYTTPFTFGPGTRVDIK
no binding (tested: 200 µg/mL): all assays above

Reference: patent US20250145690A1 (US Dept. of Health and Human Services, published 2025)
